Data set [1] deals with T1, T4 Dda-E94C/A360C helicase (Enterobacteria phage T4, UniProt P32270 SEQ:1-439, E94C/A360C, then (ΔM1)G1G2).
T1 sequence: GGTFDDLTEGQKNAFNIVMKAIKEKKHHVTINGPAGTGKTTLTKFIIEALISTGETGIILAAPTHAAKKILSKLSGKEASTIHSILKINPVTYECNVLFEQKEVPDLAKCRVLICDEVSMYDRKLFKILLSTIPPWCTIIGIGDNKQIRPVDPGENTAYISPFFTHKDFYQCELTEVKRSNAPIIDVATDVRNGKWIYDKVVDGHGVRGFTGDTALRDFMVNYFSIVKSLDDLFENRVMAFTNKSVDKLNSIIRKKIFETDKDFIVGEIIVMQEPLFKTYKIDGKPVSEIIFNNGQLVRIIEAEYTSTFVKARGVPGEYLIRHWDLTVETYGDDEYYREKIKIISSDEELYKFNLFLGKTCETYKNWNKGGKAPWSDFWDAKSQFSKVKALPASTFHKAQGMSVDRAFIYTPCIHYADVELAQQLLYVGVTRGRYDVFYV
The experiment in a line: EMSA; one enzyme bound only at 312.5-5000 nM; 1 uM DNA; 25 mM phosphate pH 8.0, 151.5 mM KCl. The conditions noted are these: 5' ssDNA overhang with duplex. How it is done: (§1) DNA constructs (1 μM or 100 nM final concentration) detailed below in Table 12 were incubated in appropriate buffer with serially diluted T4 Dda-E94C/A360C. The samples were then loaded on 4-20% TBE gels and run at 160 V for 90 minutes. The gels containing entries 1-6 were then stained using SYBR. […] The length of the region labelled 1 is varied from 2 to 50 to optimise conditions so that it is possible to control the number of T4 Dda-E94C/A360C helicases which can bind to the DNA,
(In general: A gel shift assay detects complexes by their altered migration in electrophoresis.)

Data set [2] addresses T1, T4 Dda-E94C/A360C helicase. The experiment in a line: EMSA; one helicase stalled in at least one buffer with ATP/MgCl2. The conditions noted are these: 50 nt ssDNA overhang with duplex. How it is done:
(§2) The annealed DNA complexes (sequences tested are shown in table 11 below) were mixed in a ratio of (1:1, v/v) with T4 Dda-E94C/A360C in 25 mM phosphate pH 8.0, 200 mM KCl giving final concentrations of T4 Dda-E94C/A360C (2000 nM) and DNA (100 nM). The helicase was allowed to bind to the DNA for 2 hours at ambient temperature. Capture strand (SEQ ID NO: 37, 20 μM) was added to each sample to bind any unbound enzyme and the samples incubated at ambient temperature for 30 mins. Buffer was added to the samples (DNA construct from table 11=50 nM, capture DNA (SEQ ID NO: 37)=10 μM and T4 Dda-E94C/A360C=1000 nM) and they were incubated at ambient temperature for one hour (either Buffer 1=25 mM phosphate pH 8.0, 200 mM KCl, 20 mM MgCl2, 10 mM ATP or Buffer 2=25 mM phosphate pH 8.0, 1 M KCl, 25 mM potassium ferricyanide(III), 75 mM potassium ferrocyanide, 20 mM MgCl2, 10 mM ATP). Loading buffer (25 mM Phosphate pH8.0, 151.5 mM KCl, 25% Glycerol, 125 mM EDTA) is added to each sample to quench the helicase activity. The samples were loaded onto 4-20% TBE gel and the gel run at 160 V for 1.5 hours. The Gel was then stained with SYBR gold in order to observe the DNA bands.

Data set [3] addresses T1, T4 Dda-E94C/A360C helicase. The experiment in a line: EMSA; up to five helicases bound; one helicase stalled after ATP/MgCl2. The conditions noted are these: 50 nt ssDNA overhang with duplex. How it is done: as §2
For data set [4], the target named is T1, T4 Dda-E94C/A360C helicase. Description: EMSA; up to two enzymes bound; one faint at 169 nM; 100 nM DNA. The conditions noted are these: 5' ssDNA overhang with duplex. As for the experimental part:
as §1

Data set [5] addresses T1, T4 Dda-E94C/A360C helicase. Description: EMSA; unbound DNA only up to 3750 nM; 1 uM DNA. The conditions noted are these: 5' ssDNA overhang with duplex. As for the experimental part: as §1
The target in data set [6] is T1, T4 Dda-E94C/A360C helicase. Description: EMSA; up to six enzymes bound at 5000 nM; 1 uM DNA. The conditions noted are these: 5' ssDNA overhang with duplex. As for the experimental part: as §1
Data set [7] deals with T1, T4 Dda-E94C/A360C helicase. Description: EMSA; two enzymes bound at 625-5000 nM, one at 312.5 nM; 1 uM DNA. The conditions noted are these: 5' ssDNA overhang with duplex. How it is done:
as §1

Data set [8] concerns the target T1, T4 Dda-E94C/A360C helicase. Description: EMSA; up to two enzymes bound; unbound only at 169 nM; 100 nM DNA. The conditions noted are these: 5' ssDNA overhang with duplex. How it is done: as §1
The target of data set [9] is T1, T4 Dda-E94C/A360C helicase. Description: EMSA; up to five helicases bound; ATP/MgCl2 gives strand displacement. The conditions noted are these: 50 nt ssDNA overhang with duplex. How it is done: as §2
Data set [10] concerns the target T1, T4 Dda-E94C/A360C helicase. Description: EMSA; up to five helicases bound; one, faintly two, stalled after ATP/MgCl2. The conditions noted are these: 50 nt ssDNA overhang with duplex. As for the experimental part: as §2
In data set [11] the target is T1, T4 Dda-E94C/A360C helicase. Description: EMSA; one helicase bound from 238 nM, two from 475 nM up to 3800 nM; 100 nM DNA. The conditions noted are these: two 10T ssDNA regions. As for the experimental part:
T4 Dda E94C/A360C was buffer exchanged into 25 mM phosphate pH 8.0, 151.5 mM KCl and serially diluted. The helicase and DNA were then mixed (1:1, v/v) with the DNA construct samples 9 and 10 described above (final concentration DNA=100 nM, helicase concentrations investigated=3800 nM, 1900 nM, 950 nM, 475 nM, 238 nM, 0 nM). The DNA and enzyme volumes were then incubated at ambient temperature for 1.5 hours. Dye free loading buffer (5×, 7.5 μL) was added to each sample (30 μL). Each sample (37.5 μL) was then loaded onto 4-20% TBE gel and run at 160 V for 90 minutes. The gel was then stained using SYBR.

B1: Table 12 construct 1 (10T region) (mixed)
DNA 1: TTTTTTTTTTTCGCTGCTCCACAGGTCTCAGCTTGAGCAGCGA
DNA 2: TCGCTGCTCAAGCTGAGACCTGTGGAGCAGCGA
modifications: 5 iSpC3 at 5' end; 4 iSpC3 between SEQ 37 and SEQ 36
In the case of B1, the binding result in data set [1] is given as “binds”.

B2: Table 11 construct 2 (4 iSpC3) (mixed)
DNA 1: TTTTTTTTTTTTTTTTTTTTTTTTTTTTTTTTTTTTTTTTTTTTTTTTTTTCGCTGCTCCACAGGTCTCAGCTTGAGCAGCGA
DNA 2: TCGCTGCTCAAGCTGAGACCTGTGGAGCAGCGA
modifications: 4 iSpC3 between SEQ 9 and SEQ 36
As for B2, the binding result in [2] is “binds”.

B3: Table 11 construct 7 (3 iSp18) (mixed)
DNA 1: TTTTTTTTTTTTTTTTTTTTTTTTTTTTTTTTTTTTTTTTTTTTTTTTTTTCGCTGCTCCACAGGTCTCAGCTTGAGCAGCGA
DNA 2: TCGCTGCTCAAGCTGAGACCTGTGGAGCAGCGA
modifications: 3 iSp18 between SEQ 9 and SEQ 36
As for B3, the binding result in data set [3] is “binds”.

B4: Table 12 construct 7 (16T region) (mixed)
DNA 1: TTTTTTTTTTTTTTTTTCGCTGCTCCACAGGTCTCAGCTTGAGCAGCGA
DNA 2: TCGCTGCTCAAGCTGAGACCTGTGGAGCAGCGA
modifications: 5 iSpC3 at 5' end; 4 iSp18 between SEQ 39 and SEQ 36
As to B4, the binding result in data set [4] is “binds”.

B5: Table 11 construct 6 (2 iSp18) (mixed)
DNA 1: TTTTTTTTTTTTTTTTTTTTTTTTTTTTTTTTTTTTTTTTTTTTTTTTTTTCGCTGCTCCACAGGTCTCAGCTTGAGCAGCGA
DNA 2: TCGCTGCTCAAGCTGAGACCTGTGGAGCAGCGA
modifications: 2 iSp18 between SEQ 9 and SEQ 36
With B5, the binding result in [2] was “binds”.

B6: Table 12 construct 4 (2T region) (mixed)
DNA 1: TTTCGCTGCTCCACAGGTCTCAGCTTGAGCAGCGA
DNA 2: TCGCTGCTCAAGCTGAGACCTGTGGAGCAGCGA
modifications: 5 iSpC3 at 5' end; 4 iSpC3 between TT and SEQ 36
As to B6, the binding result in data set [5] was “no binding”.

B7: Table 12 construct 3 (50T region) (mixed)
DNA 1: TTTTTTTTTTTTTTTTTTTTTTTTTTTTTTTTTTTTTTTTTTTTTTTTTTTCGCTGCTCCACAGGTCTCAGCTTGAGCAGCGA
DNA 2: TCGCTGCTCAAGCTGAGACCTGTGGAGCAGCGA
modifications: 5 iSpC3 at 5' end; 4 iSpC3 between SEQ 9 and SEQ 36
Turning to B7, in data set [6], the binding result is “binds”.

B8: Table 12 construct 2 (20T region) (mixed)
DNA 1: TTTTTTTTTTTTTTTTTTTTTCGCTGCTCCACAGGTCTCAGCTTGAGCAGCGA
DNA 2: TCGCTGCTCAAGCTGAGACCTGTGGAGCAGCGA
modifications: 5 iSpC3 at 5' end; 4 iSpC3 between SEQ 38 and SEQ 36
Turning to B8, the binding result in data set [7] was “binds”.

B9: Table 12 construct 8 (18T region) (mixed)
DNA 1: TTTTTTTTTTTTTTTTTTTCGCTGCTCCACAGGTCTCAGCTTGAGCAGCGA
DNA 2: TCGCTGCTCAAGCTGAGACCTGTGGAGCAGCGA
modifications: 5 iSpC3 at 5' end; 4 iSp18 between SEQ 40 and SEQ 36
Turning to B9, the binding result in data set [8] is recorded as “binds”.

B10: Table 11 construct 1 (no spacers) (mixed)
DNA 1: TTTTTTTTTTTTTTTTTTTTTTTTTTTTTTTTTTTTTTTTTTTTTTTTTTTCGCTGCTCCACAGGTCTCAGCTTGAGCAGCGA
DNA 2: TCGCTGCTCAAGCTGAGACCTGTGGAGCAGCGA
As to B10, the binding result in data set [9] is “binds”.

B11: Table 12 construct 5 (4T region) (mixed)
DNA 1: TTTTTCGCTGCTCCACAGGTCTCAGCTTGAGCAGCGA
DNA 2: TCGCTGCTCAAGCTGAGACCTGTGGAGCAGCGA
modifications: 5 iSpC3 at 5' end; 4 iSpC3 between T4 and SEQ 36
As to B11, in [5], the binding result was “no binding”.

B12: Table 11 construct 8 (4 iSp18) (mixed)
DNA 1: TTTTTTTTTTTTTTTTTTTTTTTTTTTTTTTTTTTTTTTTTTTTTTTTTTTCGCTGCTCCACAGGTCTCAGCTTGAGCAGCGA
DNA 2: TCGCTGCTCAAGCTGAGACCTGTGGAGCAGCGA
modifications: 4 iSp18 between SEQ 9 and SEQ 36
On to B12, for which the binding result in data set [10] was “binds”.

B13: Table 11 construct 9 (5 iSp18) (mixed)
DNA 1: TTTTTTTTTTTTTTTTTTTTTTTTTTTTTTTTTTTTTTTTTTTTTTTTTTTCGCTGCTCCACAGGTCTCAGCTTGAGCAGCGA
DNA 2: TCGCTGCTCAAGCTGAGACCTGTGGAGCAGCGA
modifications: 5 iSp18 between SEQ 9 and SEQ 36
Turning to B13, in data set [10], the binding result is “binds”.

B14: Table 11 construct 3 (8 iSpC3) (mixed)
DNA 1: TTTTTTTTTTTTTTTTTTTTTTTTTTTTTTTTTTTTTTTTTTTTTTTTTTTCGCTGCTCCACAGGTCTCAGCTTGAGCAGCGA
DNA 2: TCGCTGCTCAAGCTGAGACCTGTGGAGCAGCGA
modifications: 8 iSpC3 between SEQ 9 and SEQ 36
Turning to B14, the binding result in [2] is “binds”.

B15: Table 11 construct 4 (12 iSpC3) (mixed)
DNA 1: TTTTTTTTTTTTTTTTTTTTTTTTTTTTTTTTTTTTTTTTTTTTTTTTTTTCGCTGCTCCACAGGTCTCAGCTTGAGCAGCGA
DNA 2: TCGCTGCTCAAGCTGAGACCTGTGGAGCAGCGA
modifications: 12 iSpC3 between SEQ 9 and SEQ 36
Turning to B15, the binding result in data set [2] was “binds”.

B16: Table 11 construct 5 (1 iSp18) (mixed)
DNA 1: TTTTTTTTTTTTTTTTTTTTTTTTTTTTTTTTTTTTTTTTTTTTTTTTTTTCGCTGCTCCACAGGTCTCAGCTTGAGCAGCGA
DNA 2: TCGCTGCTCAAGCTGAGACCTGTGGAGCAGCGA
modifications: 1 iSp18 between SEQ 9 and SEQ 36
In the case of B16, the binding result in data set [2] is given as “binds”.

B17: Table 16 construct 9 (non-forked) (mixed)
DNA 1: TTTTTTTTTTTTTTTTTTTTGGTTGTTTCTGTTGGTGCTGATATTGCGCCATCAGATTGTGTTTGTTAGTCGCT
DNA 2: GCAATATCAGCACCAACAGAAACAACC
DNA 3: AGCGACTAACAAACACAATCTGATGGC
modifications: 25 SpC3 at 5' end; 2 iSp18 after each SEQ 37; 4 nitroindoles between SEQ 10 and SEQ 41
For the molecule B17, the binding result in data set [11] (two duplexes) was “binds”.

B18: Table 16 construct 10 (forked) (mixed)
DNA 1: TTTTTTTTTTTTTTTTTTTTGGTTGTTTCTGTTGGTGCTGATATTGCGCCATCAGATTGTGTTTGTTAGTCGCT
DNA 2: GCAATATCAGCACCAACAGAAACAACCT
DNA 3: AGCGACTAACAAACACAATCTGATGGC
modifications: 25 SpC3 at 5' end; 2 iSp18 after each SEQ 37; 4 nitroindoles between SEQ 10 and SEQ 41; 6 iSp18 at 3' end of SEQ 12
With B18, in data set [11] (forked duplex), the binding result is reported as “binds”.
